Reference: patent US9731032B2, “Aptamers for tumor initiating cells” (THE CLEVELAND CLINIC FOUNDATION, priority 2013, dated 2017)

Key:
[1] = test system: GS5, a well-characterized TIC line; assay: GS5 proliferation; format: cell-based
GS5 = GS5 sphere formation (TIC self-renewal); format: cell-based
Text: (§2) We further evaluated whether this drug delivery system can be used to treat TIC-derived tumors. […] We successfully encapsulated DI into our brain-penetration nanoparticles, which were administrated via a single infusion into rat brains bearing GS5-derived tumors.

CD133+ cell population = assay: CD133+ cell population; format: cell-based
Text: as §2

GS5-derived tumors = assay: Survival of rats bearing GS5-derived brain tumors after a single infusion; format: in vivo; conditions: single infusion into rat brains bearing GS5-derived tumors
Text: as §2

TICs = assay: Flow cytometry to monitor aptamer binding to TICs; set-up: species or system human; conditions: GBM1, GBM2, GBM3
Method: (§1) Each FITC-labeled aptamer candidate was incubated with TICs or non-TICs in binding buffer on ice for 30 min. The cells were washed three times with binding buffer, and the pellets with the bound sequences were resuspended in 200 μL binding buffer. The fluorescence intensity was determined with a LSR II (BD Immunocytometry Systems) by counting 10,000 events. The FITC-labeled unselected single strand DNA library was used as a negative control. To determine the specificity of the selected aptamers, aptamer binding to additional GBM cells (08-322, 4121, U87MG) or neural progenitors (RenCell c-myc immortalized human neural progenitors, Millipore; human fetal neural progenitors, Lonza) was determined. For determination of aptamer binding to differentiated TICs, TICs were plated on Geltrex-coated plates in the presence of 10% serum and harvested after five days for FACS analysis.
To further evaluate the specificity of TIC-enriched aptamers, the fold change in fluorescence was calculated. Fluorescence shift was calculated using the equation (Faptamer−Fcell)/(Flibrary−Fcell), where Faptamer, Flibrary and Fcell refers to the fluorescence value of the aptamer, library, and cell itself. Using this calculation, specificity of aptamers A2-A6 for TICs in comparison to non-TICs was shown for all three GBMs tested (FIG. 2A-C).

[2] = test system: GBM cells from GBM1 (08-387), GBM2 (4121), GBM3 (08-322), GBM4 (3691) xenografts; assay: Neurosphere formation assay of aptamer-high vs aptamer-low GBM cells; format: cell-based, human; conditions: four GBMs tested
Method: After overnight recovery of GBM cells from tissue dissociation, each Cy5-labeled aptamer was incubated with each specimen for 30 min. After washing thrice, labeled GBM cells were subjected to cell sorting. For the sphere formation assay, 10 cells of either aptamer^high and aptamer^low GBM cells sorted by FACS were directly plated into each well of a six well plate containing 200 μL of TIC culturing medium similar to our prior descriptions. After 10 to 14 days, the number of tumorspheres in each well was counted and plotted. For the cell proliferation assay, aptamer^high and aptamer^low GBM cells were sorted into each 15 mL tube, and equal numbers of cells were plated into 96 wells. Differences in cell growth were measured using Cell-Titer Glow (Promega™) according to the manufacturer's instructions and prior reports. Hjelmeland et al., PLoS biology, 8:e1000319 (2010); Li et al., Cancer cell, 15:501-13 (2009).

[3] = test system: ReNCell CX immortalized human neural progenitors or primary human fetal neural progenitors; assay: Flow cytometry aptamer binding to non-neoplastic neural progenitors
Method: as §1

[4] = test system: GBM1 (08-387) cells injected intracranially; assay: In vivo tumorigenic potential of aptamer-high vs aptamer-low GBM cells; set-up: species or system mice; conditions: for tumor incidence, aptamer-high cells / tumor incidence, aptamer-low cells: 300 cells implanted; for survival of mice injected with aptamer-high cells: 3000 or 300 cells intracranially, vs aptamer-low cells
Method: To determine tumorigenic potential, 300 or 3000 viable aptamer^high or aptamer^low GBM cells were intracranially injected into athymic/nude immunocompromised mice as we have previously described. Animals were maintained until the development of neurological signs including lethargy, seizure, ataxia, or paralysis or for a maximum of 60 days, when they were sacrificed. All animal procedures were performed in accordance with a Cleveland Clinic IACUC approved protocol.

With `CCN1/C(=C/C=C/C=C/c2sc3ccccc3[n+]2CC)Sc2ccccc21` [DI, dithiazanine iodide] the IC50 [1] was 79 nM, the “inhibition of GS5 sphere formation” value (GS5) was 94% and the “decrease of the CD133+ cell population” value (CD133+ cell population) was 57%. For the same molecule, the median survival (GS5-derived tumors) was 177 days.

B1: GACGAGCTAAGAACCTTTAGGAGTGGAAA (nucleic acid)
DNA: ATCCACGAGTGACGCAGCACAGAGTGGAAGACGAGCTAAGAACCTTTAGGAGTGGAAAAGATAGCTCATGGACACGGTGGCTTAGT
modifications: DNA, backbone and methylation of C not given here
notes: TIC-specific DNA aptamer
With B1 the “fluorescence shift (Faptamer−Fcell)/(Flibrary−Fcell): specificity for TICs in comparison to non-TICs” value (TICs) was “greater binding to TICs in GBM1 and GBM2, but not GBM3” and the “neurosphere formation capacity of aptamer-enriched cells” value (from here on “neurosphere formation capacity”) [2] was “greater neurosphere formation capacity in three of four GBMs tested”.

B2: TGTGTATAAAGGGGCGGTGAAAAGCGAAT (nucleic acid)
DNA: ATCCACGAGTGACGCAGCACAGTGATCAGTTGTGTATAAAGGGGCGGTGAAAAGCGAATTCCAGTCGACTGGACACGGTGGCTTAGT
modifications: listed as DNA, chemistry not given here
notes: TIC-specific DNA aptamer
In the case of B2, the “binding to nonneoplastic neural progenitors” value [3] is reported as “bound both sets of non-neoplastic brain cells”, the “neurosphere formation capacity” value [2] is reported as “greater neurosphere formation capacity in three of four GBMs tested” and the “tumor incidence, aptamer-high cells” value [4] is reported as “All mice”. The “tumor incidence, aptamer-low cells” value [4] was 2 of 4 and the “survival of mice injected with aptamer-high cells” value [4] was “significantly reduced”.

B3: CCGTAGCTACGACGGAGGAAACTATGTTA (nucleic acid)
DNA: ATCCACGAGTGACGCAGCATGTTTAGGAAACCGTAGCTACGACGGAGGAAACTATGTTAAACATCCCCATGGACACGGTGGCTTAGT
modifications: DNA, backbone and methylation of C not given here
notes: TIC-specific DNA aptamer
In the case of B3, the “neurosphere formation capacity” value [2] is reported as “significantly segregated cells with neurosphere formation capacity in all four GBMs tested”.

B4: AAAGCTCCTTGGAATAGTCTAATACCGGA (nucleic acid)
DNA: ATCCACGAGTGACGCAGCACGAGCAACACAAAAGCTCCTTGGAATAGTCTAATACCGGAGCGAGAAAGCTGGACACGGTGGCTTAGT
modifications: listed as DNA, chemistry not given here
notes: TIC-specific DNA aptamer
For B4, the “neurosphere formation capacity” value [2] was “significantly segregated cells with neurosphere formation capacity in all four GBMs tested”, the “tumor incidence, aptamer-high cells” value [4] was “All mice” and the “tumor incidence, aptamer-low cells” value [4] was 3 of 4. The “survival of mice injected with aptamer-high cells” value [4] was “significantly reduced”.

B5: AGAACTGGCCTTACTACGAAAAGTCCTTG (nucleic acid)
DNA: ATCCACGAGTGACGCAGCACCGAGAGGAGAGAACTGGCCTTACTACGAAAAGTCCTTGGTTGCCAGGGGTGGACACGGTGGCTTAGT
modifications: listed as DNA, chemistry not given here
notes: TIC-specific DNA aptamer
With B5 the “neurosphere formation capacity” value [2] was “significantly segregated cells with neurosphere formation capacity in all four GBMs tested”.
